In article doi:10.1101/2023.11.28.568993 (bioRxiv, 2023):

Biological target: the molecule itself
Assay: SEC

B1: DNAJA2 (wild-type, class A J-domain protein) (natural protein)
chain: not shown
modifications: Alexa Fluor-488 label in the fluorescence anisotropy assays (site not stated)
  stoichiometry N: 2
